# In paper PMC11283454:
# Test system: hATE1 WT (human)
# Experiment: EMSA
substance,measurement,value
tRNAArg acceptor arm,Kd,1.6 µM
